In patent US20080207501A1 (published 2008):
Ends that are not written are not given here.

T1: amylin receptor (nucleus accumbens membranes prepared from rat brain) (rat, UniProt P32214 25-516)
T1 chain 1: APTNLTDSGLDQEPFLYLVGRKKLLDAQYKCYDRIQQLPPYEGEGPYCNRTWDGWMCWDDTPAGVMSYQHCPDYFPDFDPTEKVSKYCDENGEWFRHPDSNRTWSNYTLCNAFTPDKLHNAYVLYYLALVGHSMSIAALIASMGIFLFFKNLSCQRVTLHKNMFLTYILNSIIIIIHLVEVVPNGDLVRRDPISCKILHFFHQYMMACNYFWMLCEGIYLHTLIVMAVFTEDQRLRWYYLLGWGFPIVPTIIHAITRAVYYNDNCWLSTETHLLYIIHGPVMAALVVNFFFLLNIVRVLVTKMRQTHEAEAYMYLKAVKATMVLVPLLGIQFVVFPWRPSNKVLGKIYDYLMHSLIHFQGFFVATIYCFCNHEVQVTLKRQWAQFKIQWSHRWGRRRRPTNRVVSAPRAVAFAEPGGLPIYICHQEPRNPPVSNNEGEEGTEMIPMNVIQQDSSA
T1 chain 2: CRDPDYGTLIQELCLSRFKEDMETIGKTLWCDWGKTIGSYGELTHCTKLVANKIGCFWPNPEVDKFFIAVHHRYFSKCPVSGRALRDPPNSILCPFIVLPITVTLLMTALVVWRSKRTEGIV


Biological target: T1, amylin receptor (nucleus accumbens …)
Experiment: radioligand binding assay (displacement of radiolabeled amylin)

| EC50 [nM] | Binder |
| --- | --- |
| > 100 | CGNLSTCMLGTYTQDFNKFHTFPQTAIGVGAP-NH2 (ends and bridges not checked) [Human Calcitonin] |
| 2.9 | TQAQLLRVGCVLGTCQVQNLSHRLWQLMGPAGRQDSAPVDPSSPHSY-NH2 (ends and bridges not checked) [Human AFP-6 [1-47]] |
